Test results: patent publication US20230220381 (published 2023)

Columns and labels:
Thrombin [1] = target: T1, Thrombin (Homo sapiens, UniProt P00734;P00734 P00734:328-363,P00734:364-622); assay: FP; no binding observed with up to 2 uM thrombin
Thrombin [2] = target: T1, Thrombin; assay: FP; 20 mM Tris, 140 mM NaCl, 20 mM KCl, 1 mM CaCl2, 1 mM MgCl2, 0.1% Triton X, room temperature

Binder | binding result (Thrombin [1]) | Kd (Thrombin [2]) [nM]
GGTTGGTGTTGTTTG (ssDNA) [NCS] | no binding | 
TBA1F (ssDNA, branched DNA-encoded construct: code strand with branching unit BU; aptamer branch …) DNA: CGTCGAGGCCCCTTCTTCTTCGTCTTCTTCTTAGGAGGTGGTGTGGTTGGTTTTACACGTCACGCCTTTTTTTTT |  | 13
GGTTGGTGTGGTTGG (ssDNA) [PC (positive control TBA 15mer)] |  | 10
NCL (ssDNA) DNA: CGTCGAGGCCCCTTCTTCTTCGTCTTCTTCTTAGGATACACGTCACGCCTTTTTTTTT | no binding | 
